Experiments:
[1] = biological target: wild-type EGFR (human) (UniProt P00533); assay: Scatchard, 125I-528 on A431 cells
[2] = biological target: de2-7 EGFR (human) (UniProt P00533); assay: immunohistochemistry, glioblastoma pre-typed: EGFR amplified, de2-7 EGFR expressed
[3] = biological target: wild-type EGFR (human) (UniProt P00533); assay: immunohistochemistry, glioblastoma pre-typed: EGFR amplified, no de2-7 EGFR expression

- receptors per cell (receptors per cell) [1]: 2e+06
- percent of immunoreactive cells [2]: > 75%
- percent of immunoreactive cells [3]: > 75%
Substance: mAb528 (antibody)

Reference: patent publication US20110313230A1
